Results on two substances are retold here after paper PMC6718376.

Assay [1] deals with NISTmAb (NIST RM 8671), recombinant humanized IgG1κ specific to respiratory syncytial virus protein F (human (humanized IgG1κ)). The assay can be described thus: plasmonic light-scattering biosensor array (localised gold nanoparticle plasmon); antigen assay: antibody (100 nM) first captured by its Fc on the protein A/G surface, then antigen at 100 nM in PBS injected for 300 s; stoichiometry from ϑm antigen/ϑm Fc normalised for the masses of antigen and intact IgG.
Sequence of NISTmAb (NIST RM 8671), recombinant humanized IgG1κ specific to respiratory syncytial virus protein F (human (humanized IgG1κ)) (heavy, as listed by the source, chain 1 of 2): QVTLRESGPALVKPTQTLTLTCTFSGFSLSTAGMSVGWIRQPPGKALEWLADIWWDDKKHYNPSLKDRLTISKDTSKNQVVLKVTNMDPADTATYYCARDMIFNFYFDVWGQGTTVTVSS
Sequence of NISTmAb (NIST RM 8671), recombinant humanized IgG1κ specific to respiratory syncytial virus protein F (human (humanized IgG1κ)) (light, as listed by the source, chain 2 of 2): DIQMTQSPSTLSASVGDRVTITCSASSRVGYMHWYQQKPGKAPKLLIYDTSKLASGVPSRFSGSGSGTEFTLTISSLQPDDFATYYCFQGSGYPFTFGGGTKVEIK

Assay [2] addresses Pierce recombinant protein A/G. In words: plasmonic light-scattering biosensor array (localised gold nanoparticle plasmon); Fc assay: protein A/G immobilised on array spots by EDC/NHS coupling, BSA reference spots and BSA blocking; antibody in PBS; NISTmAb kinetics from a global Langmuir fit to low concentrations with ϑm floating; all antibody samples at 100 nM for 300 s, 500 s wash.

Assay [3] deals with respiratory syncytial virus protein F (respiratory syncytial virus) (UniProt P03420). In words: plasmonic light-scattering biosensor array (localised gold nanoparticle plasmon); Fab assay: RSVF immobilised on array spots by EDC/NHS coupling, BSA reference spots and BSA blocking; NISTmAb injected at 1.56, 3.23 and 6.25 nM in PBS; global fit to the Langmuir 1:1 model.

Consider “respiratory syncytial virus protein F (from UniProt P03420 26-574) (natural protein)”, for which the stoichiometry N (antigens per antibody) in assay [1] was determined as 1.31.

As a reminder, the koff is the first-order rate constant of dissociation. A word on the kon: it is the second-order rate constant of association. What is called Kd is the constant that tells how readily two partners part at equilibrium. Low readings indicate tighter binding, high ones weaker binding. For the substance “NISTmAb (NIST RM 8671), recombinant humanized IgG1κ specific to respiratory syncytial virus protein F (antibody)”, in assay [2], the koff is 2e-05 s⁻¹ and the on-rate (kon) stood at 59000 M⁻¹ s⁻¹. Further, in assay [3], the Kd stood at 2.7 nM, the koff was found to be 0.00024 s⁻¹ and the kon came out at 89000 M⁻¹ s⁻¹.
